From patent publication US20070160576A1, “IL-17A/F heterologous polypeptides and therapeutic uses thereof” (Genentech, Inc., priority 2001, published 2007) come the findings set out here.

For experiment [1], the target named is T1, PRO5801 (human IL-17RH1 receptor) (Homo sapiens, UniProt Q9NRM6).
T1 sequence (Q9NRM6 18-502): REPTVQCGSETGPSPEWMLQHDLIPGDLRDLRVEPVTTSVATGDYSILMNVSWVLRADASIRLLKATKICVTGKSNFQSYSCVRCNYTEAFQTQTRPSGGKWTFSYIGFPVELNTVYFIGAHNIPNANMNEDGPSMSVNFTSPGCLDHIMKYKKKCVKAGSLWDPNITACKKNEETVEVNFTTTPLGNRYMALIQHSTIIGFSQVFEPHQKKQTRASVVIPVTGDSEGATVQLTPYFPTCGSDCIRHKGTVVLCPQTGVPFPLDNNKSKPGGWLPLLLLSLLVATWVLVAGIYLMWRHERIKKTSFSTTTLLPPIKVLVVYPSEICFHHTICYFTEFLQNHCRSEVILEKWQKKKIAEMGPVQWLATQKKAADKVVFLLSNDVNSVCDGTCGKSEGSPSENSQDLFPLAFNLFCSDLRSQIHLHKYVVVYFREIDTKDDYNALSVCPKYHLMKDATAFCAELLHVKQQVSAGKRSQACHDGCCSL
In words: Receptor/ligand interaction screening assay (immunoadhesin). It is filed as binding. Here is the method:
(§1) In general, the assay is performed as follows. A PRO polypeptide of the present invention suspected of being a ligand for a receptor is expressed as a fusion protein containing the Fc domain of human IgG (an immunoadhesin). Receptor-ligand binding is detected by allowing interaction of the immunoadhesin polypeptide with cells (e.g. Cos cells) expressing candidate PRO polypeptide receptors and visualization of bound immunoadhesin with fluorescent reagents directed toward the Fc fusion domain and examination by microscope. Cells expressing candidate receptors are produced by transient transfection, in parallel, of defined subsets of a library of cDNA expression vectors encoding PRO polypeptides that may function as receptor molecules. Cells are then incubated for 1 hour in the presence of the PRO polypeptide immunoadhesin being tested for possible receptor binding. The cells are then washed and fixed with paraformaldehyde. The cells are then incubated with fluorescent conjugated antibody directed against the Fc portion of the PRO polypeptide immunoadhesin (e.g. FITC conjugated goat anti-human-Fc antibody). The cells are then washed again and examined by microscope. A positive interaction is judged by the presence of fluorescent labeling of cells transfected with cDNA encoding a particular PRO polypeptide receptor or pool of receptors and an absence of similar fluorescent labeling of similarly prepared cells that have been transfected with other cDNA or pools of cDNA. If a defined pool of cDNA expression vectors is judged to be positive for interaction with a PRO polypeptide immunoadhesin, the individual cDNA species that comprise the pool are tested individually (the pool is “broken down”) to determine the specific cDNA that encodes a receptor able to interact with the PRO polypeptide immunoadhesin.
(§2) In another embodiment of this assay, an epitope-tagged potential ligand PRO polypeptide (e.g., 8 histidine “His” tag) is allowed to interact with a panel of potential receptor PRO polypeptide molecules that have been expressed as fusions with the Fc domain of human IgG (immunoadhesins). Following a 1 hour co-incubation with the epitope tagged PRO polypeptide, the candidate receptors are each immunoprecipitated with protein A beads and the beads are washed. Potential ligand interaction is determined by Western blot analysis of the immunoprecipitated complexes with antibody directed towards the epitope tag. An interaction is judged to occur if a band of the anticipated molecular weight of the epitope tagged protein is observed in the Western blot analysis with a candidate receptor, but is not observed to occur with the other members of the panel of potential receptors.

The target in experiment [2] is human IL-17 receptor (IL-17R, PRO1) (Homo sapiens, UniProt Q96F46). The description is as above. The experiment is classed as binding. The method, then: as §1, §2
In experiment [3] the target is T2, human IL-17 receptor (IL-17R, PRO1) as tested in the receptor/ligand screen (human, UniProt Q96F46 33-320, limits assumed).
T2 construct: also called IL-7R (as misprinted)
In words: receptor/ligand screen (immunoadhesin on transfected cells or co-immunoprecipitation). The text has this: (§3) A PRO polypeptide of the present invention suspected of being a ligand for a receptor is expressed as a fusion protein containing the Fc domain of human IgG (an immunoadhesin). Receptor-ligand binding is detected by allowing interaction of the immunoadhesin polypeptide with cells (e.g. Cos cells) expressing candidate PRO polypeptide receptors and visualization of bound immunoadhesin with fluorescent reagents directed toward the Fc fusion domain and examination by microscope. Cells expressing candidate receptors are produced by transient transfection, in parallel, of defined subsets of a library of cDNA expression vectors encoding PRO polypeptides that may function as receptor molecules. Cells are then incubated for 1 hour in the presence of the PRO polypeptide immunoadhesin being tested for possible receptor binding. The cells are then washed and fixed with paraformaldehyde. […]
(§4) In another embodiment of this assay, an epitope-tagged potential ligand PRO polypeptide (e.g., 8 histidine “His” tag) is allowed to interact with a panel of potential receptor PRO polypeptide molecules that have been expressed as fusions with the Fc domain of human IgG (immunoadhesins). […] Potential ligand interaction is determined by Western blot analysis of the immunoprecipitated complexes with antibody directed towards the epitope tag.

The target of experiment [4] is T3, PRO5801 (human IL-17RH1 receptor) as tested in the receptor/ligand screen (human, UniProt Q9NRM6 18-292, limits assumed).
T3 sequence (looked up): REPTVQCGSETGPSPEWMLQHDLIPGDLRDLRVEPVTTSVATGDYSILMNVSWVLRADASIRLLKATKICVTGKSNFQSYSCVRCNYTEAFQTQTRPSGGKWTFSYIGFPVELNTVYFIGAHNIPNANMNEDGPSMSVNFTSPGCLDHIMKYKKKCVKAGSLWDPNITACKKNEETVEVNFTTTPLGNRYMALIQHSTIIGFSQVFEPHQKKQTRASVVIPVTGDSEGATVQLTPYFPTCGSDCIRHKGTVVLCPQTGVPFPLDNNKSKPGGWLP
Described as above.
Text: as §3, §4

B1: PRO1031 (human IL-17B ligand) (ligand, UniProt Q9UHF5 21-180, looked up)
chain: QPRSPKSKRKGQGRPGPLAPGPHQVPLDLVSRMKPYARMEEYERNIEEMVAQLRNSSELAQRKCEVNLQLWMSNKRSLSPWGYSINHDPSRIPVDLPEARCLCLGCVNPFTMQEDRSMVSVPVFSQVPVRRRLCPPPPRTGPCRQRAVMETIAVGCTCIF
B1: in experiment [1], the “binding to IL-17RH1 receptor (PRO5801)” value is on record as “binds to”. Besides, in experiment [2], the “binding to human IL-17 receptor (IL-17R, PRO1)” value is “do not bind”. For the same molecule, the binding result in experiment [3] is “no binding”; in experiment [4] it was “binds”.
